# From doi:10.1101/2025.08.23.671895, “Detergent-free reconstitution of transmembrane proteins in giant liposomes of complex curvature by the Synthetic Membrane Transfer” (bioRxiv, 2025)
# B1: maltoporin (natural protein, UniProt P02943 26-446, looked up)
# chain: VDFHGYARSGIGWTGSGGEQQCFQTTGAQSKYRLGNECETYAELKLGQEVWKEGDKSFYFDTNVAYSVAQQNDWEATDPAFREANVQGKNLIEWLPGSTIWAGKRFYQRHDVHMIDFYYWDISGPGAGLENIDVGFGKLSLAATRSSEAGGSSSFASNNIYDYTNETANDVFDVRLAQMEINPGGTLELGVDYGRANLRDNYRLVDGASKDGWLFTAEHTQSVLKGFNKFVVQYATDSMTSQGKGLSQGSGVAFDNEKFAYNINNNGHMLRILDHGAISMGDNWDMMYVGMYQDINWDNDNGTKWWTVGIRPMYKWTPIMSTVMEIGYDNVESQRTGDKNNQYKITLAQQWQAGDSIWSRPAIRVFATYAKWDEKWGYDYTGNADNNANFGKAVPADFNGGSFGRGDSDEWTFGAQMEIWW
# notes: maltoporin, a beta-barrel transmembrane protein; One protein embedded in two polymers (SMA or amphipol A8-35); E. coli LamB is my surmise; also called maltoporin-SMA; maltoporin-Apol; source: purified using DDM-mediated extraction, detergent exchanged with SMA (bio-beads) or amphipol A8-35
# Target: the molecule itself
# Assay: cryo-EM structure; maltoporin reconstituted in amphipol A8-35 (filaments); 2D classification and 3D reconstruction
protein,measurement,value
B1,stoichiometry N,3
